Numbering of substitutions follows the chain as printed. In names and notes the source's numbering stands.
T1: FcgRIIa R (human, UniProt P12318 34-217)
T1 construct: extracellular domain; also called FcγRIIa R; FcγRIIa type R; not shown: His tag attached to the C terminus
T1 sequence (looked up): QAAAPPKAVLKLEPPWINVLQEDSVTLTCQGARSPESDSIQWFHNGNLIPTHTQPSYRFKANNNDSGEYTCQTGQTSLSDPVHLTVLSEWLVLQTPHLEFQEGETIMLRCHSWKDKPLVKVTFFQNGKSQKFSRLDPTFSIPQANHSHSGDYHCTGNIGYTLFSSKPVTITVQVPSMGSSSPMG

T2: FcgRIIa H (human, UniProt P12318 34-217)
T2 construct: extracellular domain; also called FcγRIIa H; FcγRIIa type H; not shown: His tag attached to the C terminus
T2 sequence (looked up): T1 sequence (looked up) with R134H

T3: FcgRIIb (human, UniProt P31994 43-217)
T3 construct: extracellular domain; Expressed in FreeStyle293 cells and purified; used as analyte in Biacore; also called FcγRIIb; CD32B; not shown: His tag attached to the C terminus
T3 sequence (looked up): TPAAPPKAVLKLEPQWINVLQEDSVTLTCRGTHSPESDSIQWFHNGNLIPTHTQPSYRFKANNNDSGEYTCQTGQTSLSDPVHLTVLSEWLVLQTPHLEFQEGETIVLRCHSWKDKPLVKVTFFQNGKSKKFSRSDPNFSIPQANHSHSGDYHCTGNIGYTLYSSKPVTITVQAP

T4: FcgRIIa R type extracellular domain, C-terminal His tag (human, UniProt P12318 34-217)
T4 construct: extracellular domain; also called FcγRIIa R; 2aR; not shown: His tag attached to the C terminus
T4 sequence (looked up): T1 sequence (looked up)

T5: FcgRIIa H type extracellular domain, C-terminal His tag (human, UniProt P12318 34-217)
T5 construct: extracellular domain; also called FcγRIIa H; 2aH; not shown: His tag attached to the C terminus
T5 sequence (looked up): T1 sequence (looked up) with R134H

T6: FcgRIIb extracellular domain, C-terminal His tag (human, UniProt P31994 43-217)
T6 construct: extracellular domain; also called FcγRIIb; 2b; not shown: His tag attached to the C terminus
T6 sequence (looked up): T3 sequence (looked up)

B1: H240-Kn115/H240-Hl076/L73-k0 (antibody, human IgG1, kappa)
heavy 1: QDQLVQSGAEVKKPGASVKVSCKASGFNIKDTYIQWVRQAPGQGLEWMGRIDPLRKQTKYREKFEGRVTITADTSTNTAYMELSSLRSEDTAVYYCVRSGREFDYWGQGTLVTVSSASTKGPSVFPLAPSSKSTSGGTAALGCLVKDYFPEPVTVSWNSGALTSGVHTFPAVLQSSGLYSLSSVVTVPSSSLGTQTYICNVNHKPSNTKVDKKVEPKSCDKTHTCPPCPAPEYYWGPMVFLFPPKPKDTLMISRTPEVTCVVVDVSDEEPEVKFNWYVDGVEVHNAKTKPREEQYNATYRVVSVLTVLHQDWLNGKEYKCKVSNKALPAPIEKTISKAKGQPREPQVCTLPPSRDELTKNQVSLWCLVKGFYPSDIAVEWESNGQPENNYKTTPPVLDSDGSFFLYSKLTVDKSRWQQGNVFSCSVMHEALHNHYTQKSLSLSP
heavy 2: QDQLVQSGAEVKKPGASVKVSCKASGFNIKDTYIQWVRQAPGQGLEWMGRIDPLRKQTKYREKFEGRVTITADTSTNTAYMELSSLRSEDTAVYYCVRSGREFDYWGQGTLVTVSSASTKGPSVFPLAPSSKSTSGGTAALGCLVKDYFPEPVTVSWNSGALTSGVHTFPAVLQSSGLYSLSSVVTVPSSSLGTQTYICNVNHKPSNTKVDKKVEPKSCDKTHTCPPCPAPELLGGPSVFLFPPKPKDTLMISRTPEVTCVVVDVSHEEPEVKFNWYVDGVEVHNAKTKPREEQYNSTYRVVSVLTVLHQDWLNGKEYKCKVSNDALPMPIEETISKAKGQPREPQVYTLPPSRCELTKNQVSLSCAVKGFYPSDIAVEWESNGQPENNYKTTPPVLDSDGSFFLVSKLTVDKSRWQQGNVFSCSVMHEALHNHYTQKSLSLSP
light: DIQMTQSPSSLSASVGDRVTITCRASQDIHKYIAWYQQKPGQAPRLLIQYTSTLQPGVPSRFSGSGSGTDYTFTISSLQPEDIATYYCLQYEQLRTFGGGTKVEIKRTVAAPSVFIFPPSDEQLKSGTASVVCLLNNFYPREAKVQWKVDNALQSGNSQESVTEQDSKDSTYSLSSTLTLSKADYEKHKVYACEVTHQGLSSPVTKSFNRGEC
notes: Heterodimerized anti-EREG IgG1: Kn115 is H240-Kn072 with S239M
B2: H240-Kn125/H240-Hl076/L73-k0 (antibody, human IgG1, kappa)
heavy 1: B1 heavy 1 with Y234Q
heavy 2: B1 heavy 2
light: B1 light
notes: Heterodimerized anti-EREG IgG1: Kn125 is H240-Kn072 with Y235Q and S239M
B3: H240-FA021/H240-FB059/L73-k0 (antibody, human IgG1, kappa)
heavy 1: B1 heavy 1 with Q195K, I198T, M238S, C348Y, D355K, L357K, W365T, V396K, H434R
heavy 2: B1 heavy 2 with G137E, K146E, K273Q, K287E, C355E, L357M, S365T, A367L, V406Y, K438E
light: B1 light
notes: Heterodimerized anti-epiregulin IgG1 antibody
B4: H240-FA020/H240-FB084/L73-k0 (antibody, human IgG1, kappa)
heavy 1: B1 heavy 1 with Q195K, I198T, M238S, C348Y, D355K, L357K, W365T, H434R
heavy 2: QDQLVQSGAEVKKPGASVKVSCKASGFNIKDTYIQWVRQAPGQGLEWMGRIDPLRKQTKYREKFEGRVTITADTSTNTAYMELSSLRSEDTAVYYCVRSGREFDYWGQGTLVTVSSASTKGPSVFPLAPSSKSTSESTAALGCLVEDYFPEPVTVSWNSGALTSGVHTFPAVLQSSGLYSLSSVVTVPSSNFGTQTYTCNVDHKPSNTKVDKTVEPKSCDKTHTCPPCPAPELLGGPSVFLFPPKPKDTLMISRTPEVTCVVVDVSHEEPEVQFNWYVDGVEVHNAETKPREEQYNSTYRVVSVLTVLHQDWLNGKEYKCKVSNDALPMPIEETISKAKGQPREPQVYTLPPSREEMTKNQVSLTCLVKGFYPSDIAVEWESEGQPENNYKTTPPVLDSDGSFFLYSKLTVDKSRWQQGNVFSCSVMHEALHNHYTQESLSLSP
light: B1 light
notes: as for B3
B5: H240-FA020/H240-FB059/L73-k0 (antibody, human IgG1, kappa)
heavy 1: B1 heavy 1 with Q195K, I198T, M238S, C348Y, D355K, L357K, W365T, H434R
heavy 2: B4 heavy 2 with E136G, S137E, N191S, F192L, T198I, D202N, T213K, E383N
light: B1 light
notes: as for B3
B6: H240-FA021/H240-FB084/L73-k0 (antibody, human IgG1, kappa)
heavy 1: B1 heavy 1 with Q195K, I198T, M238S, C348Y, D355K, L357K, W365T, V396K, H434R
heavy 2: B4 heavy 2
light: B1 light
notes: Heterodimerized anti-epiregulin IgG1 antibody; also called H240-FA021/H240-BF084/L73-k0
B7: H240-FA021/H240-FB083/L73-k0 (antibody, human IgG1, kappa)
heavy 1: B1 heavy 1 with Q195K, I198T, M238S, C348Y, D355K, L357K, W365T, V396K, H434R
heavy 2: B4 heavy 2 with E383N
light: B1 light
notes: as for B3
B8: H240-FA020/H240-FB082/L73-k0 (antibody, human IgG1, kappa)
heavy 1: B1 heavy 1 with Q195K, I198T, M238S, C348Y, D355K, L357K, W365T, H434R
heavy 2: B4 heavy 2 with E136G, S137E, N191S, F192L, T198I, D202N, T213K
light: B1 light
notes: as for B3
B9: H240-FA021/H240-FB082/L73-k0 (antibody, human IgG1, kappa)
heavy 1: B1 heavy 1 with Q195K, I198T, M238S, C348Y, D355K, L357K, W365T, V396K, H434R
heavy 2: B4 heavy 2 with E136G, S137E, N191S, F192L, T198I, D202N, T213K
light: B1 light
notes: as for B3
B10: H240-FA020/H240-FB083/L73-k0 (antibody, human IgG1, kappa)
heavy 1: B1 heavy 1 with Q195K, I198T, M238S, C348Y, D355K, L357K, W365T, H434R
heavy 2: B4 heavy 2 with E383N
light: B1 light
notes: as for B3

What follows are binders tested against T7, FcgRIa (human, UniProt P12314 16-292) (assay: SPR (Biacore), antibody captured on chip, FcgR extracellular domain as analyte).
T7 construct: extracellular domain; Expressed in FreeStyle293 cells and purified; used as analyte in Biacore; also called FcγRIa; FcγRI; not shown: His tag attached to the C terminus
Protocol: (§1) H240-Kn113 (SEQ ID NO: 92) resulting from introduction of Y234E and Y235N into H240-Kn072, H240-Kn115 (SEQ ID NO: 93) resulting from introduction of S239M into H240-Kn072, and H240-Kn125 (SEQ ID NO: 94) resulting from introduction of Y235Q and S239M into H240-Kn072 were prepared according to the method described in Reference Example 1.
(§2) Analysis of interaction between obj ective antibody and the FcγR was carried out using Biacore T100 (GE Healthcare), Biacore T200, Biacore A100, and Biacore 4000. HBS-EP+ (GE Healthcare) was used as the running buffer, and the measurement temperature was set to 25° C. Chips produced by immobilizing the antigen peptide by the amine coupling method to a Series S sensor Chip CM5 (GE Healthcare), chips produced by allowing preliminarily biotinylated antigen peptides to interact with and immobilize onto a Series S Sensor Chip SA (certified) (GE Healthcare), chips produced by immobilizing Protein L (ACTIGEN, BioVision) to Series S Sencor Chip CM5 (GE Healthcare), or chips produced by immobilizing Protein A/G (Thermo Scientific) to Series S Sencor Chip CM5 (GE Healthcare) were used. Antibodies of interest were captured onto these chips, and allowed to interact to each FcγR diluted with running buffer. To regenerate and repeatedly use the chip, the antibodies captured onto the chip were washed off by reacting 10 mM glycine-HCl, pH 1.5.

T7 sequence (P12314 16-292): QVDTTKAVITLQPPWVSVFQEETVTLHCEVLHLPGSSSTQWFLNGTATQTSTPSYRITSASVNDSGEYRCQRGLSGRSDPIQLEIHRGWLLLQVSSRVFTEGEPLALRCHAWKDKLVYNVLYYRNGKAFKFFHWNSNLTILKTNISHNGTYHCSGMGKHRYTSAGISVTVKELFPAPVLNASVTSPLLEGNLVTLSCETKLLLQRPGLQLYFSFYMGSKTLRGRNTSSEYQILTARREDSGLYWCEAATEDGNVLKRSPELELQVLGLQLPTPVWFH

Kd | Binder
0.27 nM | B1
0.24 nM | B2

What follows are binders tested against T1, FcgRIIa R in the same assay as above.
Protocol: as §1, §2

Kd | Binder
130 nM | B1
380 nM | B2

These binders were tested against T2, FcgRIIa H in the same assay as above.
Protocol: as §1, §2

Kd | Binder
62 nM | B1
190 nM | B2

Each binder was assayed against T3, FcgRIIb in the same assay as above.
Protocol: as §1, §2

Kd | Binder
1300 nM | B1
4200 nM | B2

What follows are binders tested against T8, FcgRIIIa F (human, UniProt P08637 17-208) in the same assay as above.
T8 construct: extracellular domain; also called FcγRIIIa F; not shown: His tag attached to the C terminus
Protocol: as §1, §2

T8 sequence (P08637 17-208): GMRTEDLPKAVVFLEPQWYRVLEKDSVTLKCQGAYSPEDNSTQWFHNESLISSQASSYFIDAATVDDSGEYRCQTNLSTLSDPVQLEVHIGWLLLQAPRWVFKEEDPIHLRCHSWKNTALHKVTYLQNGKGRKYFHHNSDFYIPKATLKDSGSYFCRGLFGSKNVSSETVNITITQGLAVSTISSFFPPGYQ

Kd | Binder
1.4 nM | B1
1.2 nM | B2

Each binder was assayed against T9, FcgRIIIa V (human, UniProt P08637 17-208) in the same assay as above.
T9 construct: extracellular domain; also called FcγRIIIa V; not shown: His tag attached to the C terminus
Protocol: as §1, §2

T9 sequence (P08637 17-208 F176V limits assumed): as the sequence (P08637 17-208) above, with F160V counted along it

Kd | Binder
0.43 nM | B1
0.37 nM | B2

The binders below were run against T4, FcgRIIa R type extracellular domain, … (assay: SPR (Biacore), antibody captured on chip, FcgR extracellular domain as analyte, 25 C, 1:1 Langmuir fit; experiment #3).
Protocol: (§3) Antibodies of interest were analyzed for the interaction to FcgR according to the method described in Reference Example 8.
as §2

Kd | Binder
280 nM | B3
220 nM | B4
250 nM | B5
230 nM | B6
240 nM | B7
270 nM | B8
230 nM | B9
230 nM | B10

These binders were tested against T5, FcgRIIa H type extracellular domain, … in the same assay as above.
Protocol: as §3, §2

Kd | Binder
92 nM | B3
57 nM | B4
77 nM | B5
69 nM | B6
69 nM | B7
69 nM | B8
77 nM | B9
65 nM | B10

Each binder was assayed against T6, FcgRIIb extracellular domain, … in the same assay as above.
Protocol: as §3, §2

Kd | Binder
1300 nM | B3
1400 nM | B4
1300 nM | B5
1300 nM | B6
1300 nM | B7
1200 nM | B8
1600 nM | B9
1000 nM | B10

The binders below were run against T10, FcgRIIIa F type extracellular domain, C-terminal His tag (human, UniProt P08637 17-208) in the same assay as above.
T10 construct: extracellular domain; also called FcγRIIIa F; 3aF; not shown: His tag attached to the C terminus
Protocol: as §3, §2

T10 sequence (P08637 17-208): as the sequence (P08637 17-208) above

Kd | Binder
4.4 nM | B3
3.5 nM | B4
3.5 nM | B5
3.3 nM | B6
3.9 nM | B7
3.4 nM | B8
4.2 nM | B9
3.4 nM | B10

What follows are binders tested against T11, FcgRIIIa V type extracellular domain, C-terminal His tag (human, UniProt P08637 17-208) in the same assay as above.
T11 construct: extracellular domain; also called FcγRIIIa V; 3aV; not shown: His tag attached to the C terminus
Protocol: as §3, §2

T11 sequence (P08637 17-208 F176V limits assumed): as the sequence (P08637 17-208) above, with F160V counted along it

Kd | Binder
1.7 nM | B3
1 nM | B4
1.3 nM | B5
1.3 nM | B6
1.4 nM | B7
1.1 nM | B8
1.5 nM | B9
1.1 nM | B10

What follows are binders tested against T12, FcgRI extracellular domain, C-terminal His tag (human, UniProt P12314 16-292) in the same assay as above.
T12 construct: extracellular domain; also called FcγRIa; FcgRIa; not shown: His tag attached to the C terminus
Protocol: as §3, §2

T12 sequence (P12314 16-292): as the sequence (P12314 16-292) above

Kd | Binder
0.069 nM | B3
0.068 nM | B4
0.038 nM | B5
0.033 nM | B6
0.078 nM | B7
0.079 nM | B8
0.06 nM | B9
0.12 nM | B10
